# Assay results published in patent US20150368299A1.
# B1: murine monoclonal anti-Aβ(20-42) globulomer antibody m4C9 (antibody, V domains shown)
# VH: QVQLQQPGAELVKPGASVKLSCKAPGYTFTSYWMHWVKQRPGQGLEWIGRIDPKSGDTKYTEKFKSKATLTVDKPSSTAYMQLSSLTSEDSAVYYCTTMSKLSGTHAWFAYWGQGTLVTVSA
# VL: DIKMTQSPSSMYASLGERVTITCKASQDINSYLTWFQQKPGKSPKTLIYRANRLVDGVPSRFSGSGSGQDYSLTISSLEYEDMGIYYCLQYDEFPLTFGAGTKLELK
# Target: Aβ(1-40) monomer in 0.1% NaOH (human)
# Experiment: dot blot with densitometry; Aβ form dotted on nitrocellulose in serial dilution, antibody 0.2 µg/ml; higher value = weaker recognition
# Sequence of Aβ(1-40) monomer in 0.1% NaOH (human) (peptide, as listed by the source): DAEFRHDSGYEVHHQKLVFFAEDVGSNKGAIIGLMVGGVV
binder,measurement,value
B1,dot blot relation of recognition of Aβ(20-42) globulomer to recognition of this Aβ form,110000
